Data reported in paper PMC10948360, “Tropomyosin 1-I/C coordinates kinesin-1 and dynein motors during oskar mRNA transport” (Nature Structural & Molecular Biology, 2024).

T1: Khc motor domain (Khc 1-365) (Drosophila, UniProt P17210 1-365)
T1 construct: Kinesin heavy chain (Khc), Drosophila, amino acids 1-365 (motor domain); GST removal with 3C protease is stated for NMR; for the pull-down the prey is printed as Khc 1–365 without GST; source: E. coli BL21-CodonPlus(DE3)-RIL, purified (GSTrap, SEC)
T1 sequence (looked up): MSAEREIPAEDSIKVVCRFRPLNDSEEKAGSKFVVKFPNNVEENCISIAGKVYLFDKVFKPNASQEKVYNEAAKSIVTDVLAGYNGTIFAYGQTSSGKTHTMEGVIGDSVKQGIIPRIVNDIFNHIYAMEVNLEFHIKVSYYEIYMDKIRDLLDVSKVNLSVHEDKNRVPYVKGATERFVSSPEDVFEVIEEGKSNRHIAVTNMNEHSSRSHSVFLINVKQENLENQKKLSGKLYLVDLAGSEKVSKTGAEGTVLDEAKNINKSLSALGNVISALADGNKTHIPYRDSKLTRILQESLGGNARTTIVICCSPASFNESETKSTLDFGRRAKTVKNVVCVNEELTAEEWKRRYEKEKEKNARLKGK


Columns and labels:
[1] = target: T1, Khc motor domain (Khc 1-365); experiment: pull-down; GST-Khc 855–975 (5 or 10 µM) as bait on glutathione Sepharose, 50 µM Khc 1–365 as prey, Tm1 1–335 at 5 to 15 µM; GF150 buffer, 4 °C; settings: both partners purified
[2] = target: T1, Khc motor domain (Khc 1-365); experiment: NMR titration; 1H-15N HSQC of 50 µM 15N-labeled Khc 855–975 at 298 K, 25 mM NaPO4 pH 6.5, 150 mM NaCl; unlabeled partners added, with or without U10 RNA; settings: both partners purified

Row | Binder | binding result [1] | binding result [2]
1 | GST-Khc 855-975 (domain or fragment) not shown | binds | –
2 | Khc tail (Khc 855-975) (domain or fragment, 15N-labeled (13C,15N for assignment) in the NMR experiments; used unlabeled in microtubule pelleting; also called tail domain) not shown | – | binds
